B1: HDV Ribozyme (parent)
chain: GGCCGGCAUGGUCCCAGCCUCCUCGCUGGCGCCGGCUGGGCAACAUUCCGAGGGGACCGUCCCCUCGGUAAUGGCGAAUGGGACCCA

Variants of: B1
Assay: self-cleavage, relative activity (ratio to wild type); higher = more cleavage; co-transcriptional

Variant | self-cleavage
G6C G74C | 0
G6C G74U | 0.196
G5U G59U | 0.633
G6C C57G | 0.396
G6C C57U | 0.269
G5U G80A | 0.208
G6A C85U | 0.735
G6A C85G | 0.608
G6A U12G | 0.415
G6A U12A | 0.253
G6C C63U | 0.348
G6A G59C | 0.587
G5U G54U | 0.612
G6A A45C | 0.0519
G6A A45G | 0.425
G6C C85A | 0.0791
G6C C85G | 0.375
G6A U72C | 0.219
G5U G34A | 0.0875
G6C G53C | 0.32
G6C A42C | 0.138
G6C A42U | 0.158
G6A G82C | 0
G6A C30G | 0.0678

Variant | self-cleavage
G5U U37A | 0.0723
G6C A70U | 0.185
G6C A70C | 0.133
G5U U23C | 0.462
G6A G53C | 0.928
G5U C15U | 0.723
G5U C15A | 0.0831
G5U C32A | 0.0875
G5U C32G | 0.196
G6A G31U | 0.219
G6A G29C | 0.0326
G6A U47C | 0.525
G6A U47G | 1.01
G5U A71G | 0.361
G5U G68C | 0.359
G6A G55A | 0.712
G6A G55U | 0.831
G6A G52C | 0.831
G6A G17A | 0.318
G6A G17C | 0.0923
G6C A78U | 0
G5U A78U | 0.0723
G5U A78C | 0.185
G6A G40U | 0.911

Variant | self-cleavage
G6A C15G | 0.133
G6C G52C | 0.237
G6A G35C | 0.119
G5U G39C | 0.26
G6A C63G | 0.601
G6A C63U | 0.743
G6C C22G | 0.145
G6A U9A | 0.942
G6A U27G | 0.643
G6A U27A | 0.514
G6A C32A | 0.277
G6C G17U | 0.237
G6C C49G | 0.166
G6A U37A | 0.214
G5U C64U | 0.499
G5U C64G | 0.161
G5U C22A | 0.0415
G6C A43G | 0
G6C C86G | 0.131
G5U A45C | 0.0875
G5U A45G | 0.692
G6C C33U | 0.155
G5U C84A | 0.302
G6A A8U | 0.475

Variant | self-cleavage
G6C A45C | 0.185
G6A G11A | 0.128
G6C G29U | 0.111
G6A C7U | 0.283
G5U U9C | 0.332
G5U U9G | 0.554
G6A C84A | 0.431
G5U G50U | 0.795
G5U G50A | 0.196
G6A G28A | 0.0817
G6A G34A | 0.0287
G6C C7A | 0.772
G5U C24U | 0.115
G5U C24G | 0
G5U C44U | 0.369
G5U C26A | 0.697
G6C G55A | 0.16
G6C A77C | 0.277
G5U G73U | 0.122
G5U G73A | 0.0665
G5U C48U | 0.346
G5U G55U | 0.394
G5U G28A | 0
G5U G28U | 0.115

Variant | self-cleavage
G6A G50C | 0.767
G5U C57G | 0.256
G5U C57U | 0.604
G5U C41U | 0.415
G5U C41G | 0.111
G6A G76U | 0.881
G5U C62G | 0.346
G6A G54U | 0.819
G6A G54A | 0.471
G6C C24A | 0.138
G6A C57A | 0.966
G6A C57G | 0.643
G5U U12G | 0.356
G5U U69G | 0.485
G5U U65C | 0.723
G6C C61U | 0.285
G6C C61A | 0.161
G5U U20A | 0
G6C G35A | 0.0755
G6C C21G | 0.0875
G5U C21G | 0.0791
G5U C21U | 0.0462
G6A C26A | 0.888
G6C G38A | 0.0396

Variant | self-cleavage
G6A C19U | 0.0875
G5U A70G | 0.375
G6A U69C | 0.631
G6A G67U | 0.692
G6C C58U | 0.394
G6C C58A | 0.308
G6A U65C | 0.554
G5U G35C | 0
G6C G54A | 0.415
G5U G74C | 0.0475
G5U G74A | 0.125
G6C G68A | 0.201
G6A A87G | 0.654
G5U C7A | 0.566
G6A C61G | 0.712
G5U A43U | 0.0978
G5U A87G | 0.636
G5U A87C | 0.277
G6A G10U | 0.0963
G5U A77G | 0.227
G6A C58A | 0.724
G6C C15G | 0
G6A C21A | 0.0707
G5U U47A | 0.378

Variant | self-cleavage
G6C A8C | 0
G6C A8G | 0.332
G5U C85G | 0.289
G6C C62A | 0.161
G6A C13G | 0
G5U G29A | 0.285
G5U C33A | 0.898
G5U G6C | 0
G5U G6U | 0
G6A C22G | 0.0739
G6C C14G | 0.111
G6A A43C | 0.0489
G6A A43G | 0.277
G5U G76A | 0.391
G6C G59U | 0.314
G6A U46C | 0.508
G5U G38A | 0.119
G5U G38U | 0.453
G6C A71C | 0.0791
G6C C44A | 0.208
G6C G31C | 0.399
G6C G31A | 0.277
G6A C62A | 0.543

Source: the RNAGym collection of RNA variant scans (doi:10.7554/elife.80360)
